Test results published in patent US20030113322A1 (published 2003).
No end group written: not given here.

B1: cellulose-bound dodecapeptide 29 of the 13B8.2 VL sequence (linear form of CB8) (peptide)
peptide: IYSYLAWYQQKQ
modifications: also: bound to cellulose membrane (Spot synthesis)
notes: also called VL peptide 29
B2: cellulose-bound dodecapeptide 30 of the 13B8.2 VH sequence (linear form of CB2) (peptide)
peptide: TTFGVHWVRQSP
modifications: also: bound to cellulose membrane (Spot synthesis)
notes: also called VH peptide 30
B3: cellulose-bound dodecapeptide 29 of the 13B8.2 VH sequence (linear form of CB1) (peptide)
peptide: LTTFGVHWVRQS
modifications: also: bound to cellulose membrane (Spot synthesis)
notes: also called VH peptide 29

target: T1, biotinylated recombinant human soluble CD4 (rhCD4, Repligen) (human, UniProt P01730 26-396, limits assumed, biotinylated (sites not given)); assay: Spot: cellulose-bound dodecapeptide, 20 nM biotinylated rhCD4
T1 construct: Soluble form, bought; biotinylated with a commercial reagent; also called biotinylated-rhCD4
Method: The saturated membrane was incubated with a 20 nM solution of biotinylated-rhCD4 for 2 h at 37° C. Bound biotinylated-rhCD4 was detected by incubating the membrane for 1 h at 37° with a 1:3000 solution of alkaline phosphatase-conjugated streptavidin (Sigma, St. Louis, Mo., USA) and subsequent addition of 5-bromo-4-chloro-3-indolyl phosphate substrate. […] In all cases, the reactivity of the spots was evaluated by scanning the membrane and measuring the intensities of the spots with the NIH image 1.61 software.
The anti-CD4 immunoreactivity of these peptides was assessed by incubating the membrane with biotinylated-rhCD4.

Binding result, binds:
B1
B2
B3
